Key:
[1] = system: 1 centimetre experimental wound; experiment: Clinical trial, single intradermal injection, lay panel VAS scar scoring (ToScar); assay type: in vivo, human
Procedure: FIG. 1 illustrates data from a clinical trial conducted by the inventors to generate a dose response curve indicative of the anti-scarring effect achieved using various different doses of TGF-β3 administered in a single incidence of treatment. Either TGF-β3 or placebo were administered as a single intradermal injection to a 1 centimetre experimental wound. […] To test the treatment effect, ToScar of the TGFβ3 scar was subtracted from the anatomically matched Placebo ToScar on the other arm on each subject. ToScar was calculated as the sum of VAS scores (mm) from week 6 and months 3, 4, 5, 6 and 7. The scars were scored by an independent lay panel at 6 time points after dosing (week 6, months 3-7) using a 100 mm VAS line.

human wounds = experiment: Clinical trial, two incidences of treatment within approximately 1 hour, lay panel VAS scar scoring; assay type: in vivo
Procedure: FIG. 2 illustrates data from a clinical trial conducted by the inventors. In this study TGFβ3 and Placebo were each administered in two separate incidences of treatment (by means of two intradermal injections). However, unlike the methods of the present invention, the first incidence of treatment took place immediately prior to wounding but the second incidence of treatment occurred immediately after wound closure, i.e., both doses being administered within approximately 1 hour of one another (the first ten to thirty minutes prior to wounding, and the second ten to thirty minutes post-wounding). […] To test the treatment effect, ToScar of the TGFβ3 scar was subtracted from the anatomically matched Placebo ToScar on the other arm on each subject. ToScar was calculated as the sum of VAS scores (mm) from week 6 and months 3, 4, 5, 6 and 7. The scars were scored by an independent lay panel at 6 time points after dosing (week 6, months 3-7) using a 100 mm VAS line.
FIG. 8 illustrates data from a clinical trial conducted by the inventors in which either TGF-β3 or placebo were administered in two incidents of treatment (each comprising administration of the test substance by intradermal injection), the first incidence occurring prior to wounding and the second immediately after wound closure, i.e., both doses of TGF-β3 being the same as one another, and administered within approximately 1 hour (10-30 mins prior to wounding and 10-30 mins post wounding).

experimental rat wounds = experiment: Rat model of scar formation, dose response, two equal doses separated by 24 hours; assay type: in vivo; settings: repeated treatment with low doses or with high doses (range 5-500 ng/cm), 24 hours apart
Procedure: FIG. 10 illustrates a “bell-shaped” dose response curve in a rat model of scar formation in response to different doses of TGF-β3. TGF-β3 was provided to wounds via two injections of TGF-β3 separated by approximately 24 hours. The amount of TGF-β3 provided in each injection was the same in each incidence of treatment.
FIG. 10 illustrates that the TGF-β3 “bell-shaped” dose response curve observed in human subjects is also found in experimental animals. Here, TGF-β3 was provided to experimental rat wounds, in two incidences of treatment separated by 24 hours (the first incidence of treatment occurring at, or around, the time of wounding). The amount of TGF-β3 administered per centimetre of wound in each incidence of treatment is shown on the X-axis (5 ng/cm, 50 ng/cm, 200 ng/cm or 500 ng/cm).

B1: TGF-β3: well-known anti-scarring growth factor, Sequence ID No. 1; labelled "Juvista" in FIGS. 8 and 9 (protein, listed as Homo sapiens)
chain: ALDTNYCFRNLEENCCVRPLYIDFRQDLGWKWVHEPKGYYANFCSGPCPYLRSADTTHSTVLGLYNTLNPEASASPCCVPQDLEPLTILYYVGRTPKVEQLSNMVVKSCKCS
- inhibition of scarring ([1]; single application of 50 ng, 200 ng or 500 ng/100 μl per cm of wound margin): effectively inhibited
- scar improvement (placebo ToScar minus TGFβ3 ToScar, sum of VAS scores), average ([1]; single application, 200 ng/100 μl per cm of wound margin, maximum improvement): > 50 mm
- drug efficacy at top of dose range ([1]; single application, 500 ng/100 μl per cm of wound margin, versus 200 ng): reduction in drug efficacy
- inhibition of scarring (mean VAS scores over time) (human wounds; two applications of 5, 50, 200 and 500 ng/100 μl per cm within approximately 1 hour, week 6 to month 7): scarring is inhibited
- inhibition of scarring (human wounds; two applications of 5, 50, 200 and 500 ng/100 μl per cm, both within approximately 1 hour): effectively inhibited
- scar improvement (placebo ToScar minus TGFβ3 ToScar, sum of VAS scores), average (human wounds; two applications within approximately 1 hour, 200 ng/100 μl per cm, maximum improvement): > 40 mm
- drug efficacy at top of dose range (human wounds; two applications within approximately 1 hour, 500 ng/100 μl per cm, versus 200 ng): reduction in drug efficacy
- inhibition of scarring (experimental rat wounds): little inhibition of scarring
